Laboratory results as given in patent US20250064934A1 (CENTURY THERAPEUTICS, published 2025).
Substitutions are numbered along the chain they refer to. Blank lines part the entries; values can stand above or below the binder they belong to.

Tests used:
[1] = target: T1, CD22 expressed on the cell surface (Raji, Daudi, CHO-CD22 and other CD22+ cells) (UniProt P20273 20-847, limits assumed); assay: cell-based or functional assay
T1 construct: whole, on cells; also called CD22 positive Raji cells; CD22+ Raji cells
T1 sequence (looked up): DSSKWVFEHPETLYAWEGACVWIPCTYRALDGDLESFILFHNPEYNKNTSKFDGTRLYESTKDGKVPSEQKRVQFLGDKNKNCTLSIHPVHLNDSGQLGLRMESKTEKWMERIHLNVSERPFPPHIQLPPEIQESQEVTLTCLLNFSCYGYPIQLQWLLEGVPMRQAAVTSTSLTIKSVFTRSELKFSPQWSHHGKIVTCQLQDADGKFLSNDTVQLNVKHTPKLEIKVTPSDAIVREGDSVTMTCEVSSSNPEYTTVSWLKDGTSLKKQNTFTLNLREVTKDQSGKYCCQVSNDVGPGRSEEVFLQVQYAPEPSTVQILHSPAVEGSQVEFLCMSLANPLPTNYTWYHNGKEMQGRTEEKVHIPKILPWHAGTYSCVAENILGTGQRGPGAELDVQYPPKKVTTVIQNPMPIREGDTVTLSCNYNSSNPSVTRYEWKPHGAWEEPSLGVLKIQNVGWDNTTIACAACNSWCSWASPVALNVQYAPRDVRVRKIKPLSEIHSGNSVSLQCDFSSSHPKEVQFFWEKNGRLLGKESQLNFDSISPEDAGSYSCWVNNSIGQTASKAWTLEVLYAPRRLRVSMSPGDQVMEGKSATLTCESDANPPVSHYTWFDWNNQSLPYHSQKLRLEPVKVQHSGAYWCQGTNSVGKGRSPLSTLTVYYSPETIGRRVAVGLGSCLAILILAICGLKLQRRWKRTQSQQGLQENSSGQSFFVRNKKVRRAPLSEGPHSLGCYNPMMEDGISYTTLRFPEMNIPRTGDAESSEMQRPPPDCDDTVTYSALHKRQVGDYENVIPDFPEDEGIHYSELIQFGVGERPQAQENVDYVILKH

[2] = target: T1, CD22 expressed on the cell surface …; assay: flow cytometry on Raji cells, PE-labeled anti-human IgG Fc detection
Procedure: FIGS. 1A-C show results of VHH-Fc fusion proteins that were examined by flow cytometry for CD22 cellular binding in Raji cells. […] No binding was seen to Raji CD22 knock-out cells. B) PROT265 and PROT810 (an affinity matured variant of PROT265) bind to Raji cells, with PROT810 showing improved binding relative to PROT265.
(§1) VHH-Fc proteins were tested for binding to CD22 expressed on the cell surface. VHH-Fc proteins were serially diluted and added to Raji cells and incubated at 4 C for 30 minutes. Cells were washed once in BD staining buffer, BSA (BD Pharmingen), then PE-labeled anti-human IgG Fc (Jackson Immnoresearch) was added to detect VHH-Fc cell binding and incubated at 4 C for 30 minutes. Cells were washed once, then resuspended in staining buffer with 0.1% pluronic acid and run through a flow cytometer to detect the fluorescent labeling of the VHH-Fc cells.

[3] = target: T2, monomeric CD22 (Acro Biosystems) (UniProt P20273 20-687); assay: BLI (ForteBio Octet Red), VHH-Fc captured on anti-human IgG Fc sensor, monomeric CD22 at 250 nM
T2 construct: Bought protein; also called CD22 antigen; soluble CD22 protein
T2 sequence (looked up): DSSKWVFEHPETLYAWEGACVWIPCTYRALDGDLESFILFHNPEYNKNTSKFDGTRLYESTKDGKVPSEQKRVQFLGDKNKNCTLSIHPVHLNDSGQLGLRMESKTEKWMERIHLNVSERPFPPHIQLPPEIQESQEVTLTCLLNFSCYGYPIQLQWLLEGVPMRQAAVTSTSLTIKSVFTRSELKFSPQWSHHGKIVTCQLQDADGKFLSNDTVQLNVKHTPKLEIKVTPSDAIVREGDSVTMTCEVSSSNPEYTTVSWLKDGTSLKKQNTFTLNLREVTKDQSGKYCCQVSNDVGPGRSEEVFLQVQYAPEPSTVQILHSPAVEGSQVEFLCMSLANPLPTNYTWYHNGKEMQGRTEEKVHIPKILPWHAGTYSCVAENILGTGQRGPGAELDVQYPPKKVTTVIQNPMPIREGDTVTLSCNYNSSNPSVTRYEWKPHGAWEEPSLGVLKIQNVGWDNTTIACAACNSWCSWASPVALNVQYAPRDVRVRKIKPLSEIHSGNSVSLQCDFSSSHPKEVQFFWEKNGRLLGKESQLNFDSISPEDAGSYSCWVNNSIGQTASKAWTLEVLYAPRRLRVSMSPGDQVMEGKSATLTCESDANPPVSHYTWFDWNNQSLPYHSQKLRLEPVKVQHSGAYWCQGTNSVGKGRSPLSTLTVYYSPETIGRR
Procedure: (§2) VHH-Fc fusion proteins were assessed for affinity against monomeric CD22 (Acro Biosystems) using the ForteBio Octet Red BLI instrument. VHH-Fc proteins were captured onto an anti-human IgG Fc sensor at 50 nM. Sensor tips were quenched with human IgG Fc protein at 100 nM, then CD22 antigen was added at 250 nM to assess binding kinetics. Association was examined for 600 seconds and dissociation was examined for 600 seconds, allowing for calculation of Kon, Kdis and KD.

[4] = target: T2, monomeric CD22 (Acro Biosystems); assay: protein affinity of VHH-IgG1 Fc fusions (summary sentence, method not named there); before affinity maturation
Procedure: as §2

[5] = target: T1, CD22 expressed on the cell surface …; assay: flow cytometry on Raji cells, serially diluted VHH-Fc, detection with PE anti-human IgG Fc, % positive cells
Procedure: as §1

[6] = target: T2, monomeric CD22 (Acro Biosystems); assay: BLI affinity assessment of VHH-Fc fusions
Procedure: as §2
(§3) The D04 clone was affinity matured by scanning mutagenesis of the CDRs and phage display selections for higher affinity clones. Variants were isolated and expressed as VHH-Fc fusions for affinity assessment.

[7] = target: T2, monomeric CD22 (Acro Biosystems); assay: protein affinity of VHH-IgG1 Fc fusions (summary sentence, method not named there); after affinity maturation of CDR3
Procedure: as §2, §3

B1: tandem VHH CAR D04_AM_D11-E04 (P1730) (bispecific antibody, part only; not given: which CAR backbone was used, part only)
chain, part: QVQLVESGGGLVQAGGSLRLSCAASGSEFTGYPMGWFRQAPGKEREFVAGSVGIGGSTNYADSVKGRFTISRDNAKNTVYLQMNSLKPEDTAVYYCAADKDYYKPYSRYRTAIRYDTWGQGTQVTVSSGSTSGSGKPGSGEGSTKGEVQLLESGGGLVQPGGSLRLSCAASGFTSSSYVMGWYRQAPGKEREFVSSISTGGDAYYADSVKGRFTISRDNSKNTLYLQMNSLRAEDTAVYYCAADVWYYHGGAYDYWGQGTQVTVSS
Raji cell killing by CAR-T cells (flow cytometry, 48 hours) [1]: 40%

B2: PROT739 (A01) VHH-Fc fusion protein (Fc fusion)
chain: EVQLLESGGGLVQPGGSLRLSCAASGLTSYSYAMGWYRQAPGKEREFVSAISSGGSAYYADSVKGRFTISRDNSKNTLYLQMNSLRAEDTAVYYCAVGPYYGFRAVTEADYWGQGTQVTVSS
notes: VHH fused to the human IgG1 Fc domain; not shown: human IgG1 Fc domain
EC50 [2]: ~2 nM | Kd [3]: 96.1 nM | koff [3]: 0.0102 s⁻¹ | kon [3]: 106000 M⁻¹ s⁻¹

B3: tandem VHH CAR E04-D04_AM_D11 (P1738) (bispecific antibody, part only; not given: which CAR backbone was used, part only)
chain, part: EVQLLESGGGLVQPGGSLRLSCAASGFTSSSYVMGWYRQAPGKEREFVSSISTGGDAYYADSVKGRFTISRDNSKNTLYLQMNSLRAEDTAVYYCAADVWYYHGGAYDYWGQGTQVTVSSGSTSGSGKPGSGEGSTKGQVQLVESGGGLVQAGGSLRLSCAASGSEFTGYPMGWFRQAPGKEREFVAGSVGIGGSTNYADSVKGRFTISRDNAKNTVYLQMNSLKPEDTAVYYCAADKDYYKPYSRYRTAIRYDTWGQGTQVTVSS
Raji cell killing by CAR-T cells (flow cytometry, 48 hours) [1]: < 20%

B4: PROT265 (D04) VHH-Fc fusion protein (Fc fusion)
chain: QVQLVESGGGLVQAGGSLRLSCAASGSEFTGYPMGWFRQAPGKEREFVAGSVGIGGSTNYADSVKGRFTISRDNAKNTVYLQMNSLKPEDTAVYYCAADKDYYKPYSRYRTVIRYETWGQGTQVTVSS
notes: also called CD22_D04; not shown: human IgG1 Fc domain
Kd [3]: 31.9 nM | koff [3]: 0.00257 s⁻¹ | kon [3]: 80800 M⁻¹ s⁻¹ | Kd [4]: 30 nM | EC50 (read off the curve) [5]: ~1 nM

Now from value to binder:

fold improvement of affinity over the D04 clone [6]: 5 fold | Kd [3]: 6.97 nM | koff [3]: 0.000657 s⁻¹ | kon [3]: 94300 M⁻¹ s⁻¹ | Kd [7]: 5 nM
B5: PROT810 (D04-AM-D11) VHH-Fc fusion protein (Fc fusion)
chain: B4 chain with V112A, E116D
notes: I took that entry to be D04-AM-D11 on the strength of the name; also called DO4-D11-CD22 VHH; not shown: human IgG1 Fc domain

EC50 [2]: ~2 nM | Kd [3]: 23.3 nM | koff [3]: 0.000536 s⁻¹ | kon [3]: 23000 M⁻¹ s⁻¹
B6: PROT740 (E04) VHH-Fc fusion protein (Fc fusion)
chain: EVQLLESGGGLVQPGGSLRLSCAASGFTSSSYVMGWYRQAPGKEREFVSSISTGGDAYYADSVKGRFTISRDNSKNTLYLQMNSLRAEDTAVYYCAADVWYYHGGAYDYWGQGTQVTVSS
notes: as for B2
